From publication PMC6856059 (Nature, 2019)

Target: the molecule itself
Test: cryo-EM structure

B1: N-terminally truncated zebrafish NKCC1 (domain or fragment)
chain: KFGWIKGVLVRCMLNIWGVMLFIRMTWIVGQAGIAYSCIIVIMATVVTTITGCSTSAIATNGFVRGGGAYYLISRSLGPEFGGSIGLIFAFANAVAVAMYVVGFAETVVELLMDSGLLMIDQTNDIRVIGTITVILLLGISVAGMEWEAKAQIFLLVILITAIFNYFIGSFIAVDSKKKFGFFSYDAGILAENFGPDFRGQTFFSVFSIFFPAATGILAGANISGDLADPQMAIPKGTLLAILITGLVYVGVAISAGACIVRDATGIESNFTLISNCTDAACKYGYDFSSCRPTVEGEVSSCKFGLHNDFQVMSVVSGFSPLISAGIFSATLSSALASLVSAPKVFQALCKDNIYPGIAIFGKGYGKNNEPLRGYFLTFGIALAFILIAELNVIAPIISNFFLASYALINFSVFHASLANSPGWRPSFKYYNMWASLAGAILCCVVMFIINWWAALLTNVIVLSLYIYVSYKKPDVNWGSSTQALTYHQALTHSLQLCGVADHIKTFRPQCLVMTGAPNSRPAILHLVHAFTKNVGLMLCGHVRISSRRPNFKELNSDMLRYQRWLLNNNSKAFYTCVVAEDLRQGTQYMLQAAGLGRLRPNTLVIGFKNDWRTGDIKEVETYINLIHDAFDFQYGVVILRLREGLDISHIQGQDDSSGMKDVVVSVDISKDSDGDSSKPSSKATSVQNSPAVQKDEDDDGKAHTQPLLKKDKKSPTVPLNVADQRLLDASQQFQQKQGKGTVDVWWLFDDGGLTLLIPYLIANKKKWKDCKIRVFIGGKINRIDHDRRAMATLLSKFRIDFSDITVLGDINTKPKSEGLTEFAEMIEPYKLREDDMEQEAAEKLKSEEPWRITDNELELYKAKGNRQIRLNELLKEHSSTANLIVMSMPLARKGAVSSALYMAWLDTLSKDLPPILLVRGNHQSVLTFYS
- stoichiometry N: 2
